PMC8960874 (2022)

What was measured:
[1] = target: T1, SARS-CoV-2 spike receptor binding domain (RBD) protein with a C-terminal hexahistidine tag (SARS-CoV-2, UniProt P0DTC2 319-541); assay: BLI
[2] = target: T1, SARS-CoV-2 spike receptor binding …; assay: BLI; remark: listed apart in the source

B1: Clone 2 mAb (human IgG1 with mouse variable regions) (antibody, V domains shown)
VH: EVQLQQSGPELVKPGASVKISCKASGYSFTGYSMNWMKQSPEKSLEWIGEINPSTGGTTDNQKFKAKATLTVDKSSSTAYMQLKSLTSEDSAVYYCARSRGDYWGQGTSVTVSS
VL: DIVLTQSPASLAVSLGQRATISCRASESVEYYGTSLMQWYQQKPGQPPKVLIYAASNVESGVPARFSGSGSGTDFSLNIHPVEEDDIAMYFCQQSRKVPWTFGGGTKLEIK
**Q.** What does the source list for B1?
**A.** Kd [1]: 1.58 pM; koff [2]: 1.49e-07 s⁻¹

B2: Clone 6 mAb (human IgG1 with mouse variable regions) (antibody, V domains shown)
VH: QVQLQQSAAELARPGASVKMSCKASGYTFTSYTMHWVKQRPGQGLEWIGYINPTSGYTEYNQNFKDKTTLTADKSSSTAYMQLNSLTSEDSAVYYCAREGHRVGPAYWGQGTLVTVSA
VL: not shown
**Q.** B2 was tested. Which Kd [1] did it give?
**A.** 1.89 pM

**Q.** And the koff [2]?
**A.** 3.65e-07 s⁻¹
